{"source": "patent US20100138941A1", "about": "(IMAGENE, published 2010)", "binders": {"B1": {"name": "GST-gp96-(699-799) (other)", "chain": "RRIKEDEDDKTVLDLAVVLFETATLRSGYLLPDTKAYGDRIERMLRLSLNIDPDAKVEEEPEEEPEETAEDTTEDTEQDEDEEMDVGTDEEEETAKESTAE", "notes": "GST-tag fusion purified on GSH agarose; also called domain involved in oligomerization; not shown: GST tag encoded by the pGEX4T3 vector (Amersham Biosciences)"}}, "molecular_target": "T1, AIMP1 protein (SEQ ID NO: 1) consisting of 312 amino acids (Homo sapiens (Human), UniProt Q12904 1-312)", "T1 construct": "also called purified AIMP1 protein; AIMP1 protein antigen", "T1 sequence": "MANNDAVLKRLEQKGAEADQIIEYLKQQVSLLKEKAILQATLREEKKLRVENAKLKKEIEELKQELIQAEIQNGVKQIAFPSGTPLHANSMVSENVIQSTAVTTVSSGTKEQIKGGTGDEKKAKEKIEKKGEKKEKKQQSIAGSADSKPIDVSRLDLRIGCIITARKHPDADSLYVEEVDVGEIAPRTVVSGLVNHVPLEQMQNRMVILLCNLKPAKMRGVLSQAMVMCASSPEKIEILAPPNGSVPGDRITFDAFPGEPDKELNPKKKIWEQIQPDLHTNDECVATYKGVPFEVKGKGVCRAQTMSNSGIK", "test": "purified GST-gp96 fragments incubated with AIMP1, Western blot with anti-AIMP1 antibody", "procedure": "The purified GST-gp96 fragments were cultured with AIMP1 and analyzed by Western blot using an anti-AIMP1 antibody, and the analysis results are shown in FIG. 16."}
{"binder": "B1", "values": [{"measurement": "binding result", "result": "binds"}]}
